Laboratory results taken from patent US20060257938A1, “Method of screening for drugs that block ligand binding to a lipid binding protein” (priority 2005, published 2006).
Changes are numbered by the printed parent chain. Several values for one entry are separate records, joined by “and”; a condition that tells them apart may be missing. Identical values can stand only once.

B1: 62D, 72A (protein, listed as Rattus norvegicus)
chain: AFDGTWKVDRNENYEKFMEKMGINVVKRKLGAHDNLKLTITQEGNKFTVKESSNFRNIDVVDELGVDFAYSAADGTELTGTWTMEGNKLVGKFKRVDNGKELIAVREISGNELIQTYTYEGVEAKRIFKKE
modifications: PEPTIDE (1)...(131) wild-type rat intestinal fatty acid binding protein
B2: 68C, 72A (protein, listed as Rattus norvegicus)
chain: B1 chain with D62F, F68C
modifications: PEPTIDE (1)...(131) wild-type rat intestinal fatty acid binding protein
B3: 68A, 72A (protein, listed as Rattus norvegicus)
chain: B1 chain with D62F, F68A
modifications: PEPTIDE (1)...(131) wild-type rat intestinal fatty acid binding protein
B4: 62G, 72A (protein, listed as Rattus norvegicus)
chain: B1 chain with D62G
modifications: PEPTIDE (1)...(131) wild-type rat intestinal fatty acid binding protein
B5: 68E, 72A (protein, listed as Rattus norvegicus)
chain: B1 chain with D62F, F68E
modifications: PEPTIDE (1)...(131) wild-type rat intestinal fatty acid binding protein
B6: 68M, 72A (protein, listed as Rattus norvegicus)
chain: B1 chain with D62F, F68M
modifications: PEPTIDE (1)...(131) wild-type rat intestinal fatty acid binding protein
B7: 68D, 72A (protein, listed as Rattus norvegicus)
chain: B1 chain with D62F, F68D
modifications: PEPTIDE (1)...(131) wild-type rat intestinal fatty acid binding protein
B8: 62N, 72A (protein, listed as Rattus norvegicus)
chain: B1 chain with D62N
modifications: PEPTIDE (1)...(131) wild-type rat intestinal fatty acid binding protein
B9: 62E, 72A (protein, listed as Rattus norvegicus)
chain: B1 chain with D62E
modifications: PEPTIDE (1)...(131) wild-type rat intestinal fatty acid binding protein
B10: 62I, 72A (protein, listed as Rattus norvegicus)
chain: B1 chain with D62I
modifications: PEPTIDE (1)...(131) wild-type rat intestinal fatty acid binding protein
B11: 62T, 72A (protein, listed as Rattus norvegicus)
chain: B1 chain with D62T
modifications: PEPTIDE (1)...(131) wild-type rat intestinal fatty acid binding protein
B12: 68Q, 72A (protein, listed as Rattus norvegicus)
chain: B1 chain with D62F, F68Q
modifications: PEPTIDE (1)...(131) wild-type rat intestinal fatty acid binding protein
B13: 68Y, 72A (protein, listed as Rattus norvegicus)
chain: B1 chain with D62F, F68Y
modifications: PEPTIDE (1)...(131) wild-type rat intestinal fatty acid binding protein
B14: 68I, 72A (protein, listed as Rattus norvegicus)
chain: B1 chain with D62F, F68I
modifications: PEPTIDE (1)...(131) wild-type rat intestinal fatty acid binding protein
B15: 62H, 72A (protein, listed as Rattus norvegicus)
chain: B1 chain with D62H
modifications: PEPTIDE (1)...(131) wild-type rat intestinal fatty acid binding protein
B16: 68N, 72A (protein, listed as Rattus norvegicus)
chain: B1 chain with D62F, F68N
modifications: PEPTIDE (1)...(131) wild-type rat intestinal fatty acid binding protein
B17: 68L, 72A (protein, listed as Rattus norvegicus)
chain: B1 chain with D62F, F68L
modifications: PEPTIDE (1)...(131) wild-type rat intestinal fatty acid binding protein
B18: 68S, 72A (protein, listed as Rattus norvegicus)
chain: B1 chain with D62F, F68S
modifications: PEPTIDE (1)...(131) wild-type rat intestinal fatty acid binding protein
B19: 68V, 72A (protein, listed as Rattus norvegicus)
chain: B1 chain with D62F, F68V
modifications: PEPTIDE (1)...(131) wild-type rat intestinal fatty acid binding protein
B20: 68T, 72A (protein, listed as Rattus norvegicus)
chain: B1 chain with D62F, F68T
modifications: PEPTIDE (1)...(131) wild-type rat intestinal fatty acid binding protein
B21: 68G, 72A (protein, listed as Rattus norvegicus)
chain: B1 chain with D62F, F68G
modifications: PEPTIDE (1)...(131) wild-type rat intestinal fatty acid binding protein
B22: 104D1, 72A (protein, listed as Rattus norvegicus)
chain: B1 chain with D62F, A104D
modifications: PEPTIDE (1)...(131) wild-type rat intestinal fatty acid binding protein
B23: 102Y, 72A (protein, listed as Rattus norvegicus)
chain: B1 chain with D62F, L102Y
modifications: PEPTIDE (1)...(131) wild-type rat intestinal fatty acid binding protein

Test: Probe fluorescence ratio response to arachidonic acid relative to ADIFAB2
Type: binding
Settings: Arachidonic acid; response relative to ADIFAB2
Outline: (§1)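 Fluorescently labeled rat intestinal FABP variants were read at two emission wavelengths, near the unbound maximum (about 420 to 480 nm) and the FFA-bound maximum (about 495 to 580 nm). R = Fλ1/Fλ2 after subtracting probe-free intensity; ΔR = R+agent − R0, normalized to ADIFAB2 (rI-FABP-L72A).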

Going from B1 to B2, the “DR/DR AA” value falls from 1.49 to 0.18.

Compared with B3, B4 is higher in “DR/DR AA” value: 0.23 for the first, 1.43 for the second.

First: B5
Second: B6
The “DR/DR AA” value of the first is higher: 0.89 for the first, 0.52 for the second.

Going from B7 to B8, the “DR/DR AA” value rises from 1.24 to 1.40.

Compared with B9, B10 is lower in “DR/DR AA” value: 1.48 for the first, 1.40 for the second.

First: B11
Second: B12
The “DR/DR AA” value of the first is higher: 0.99 for the first, 0.47 for the second.

B13 and B14 are the same in “DR/DR AA” value: 0.42 for the first, 0.42 for the second.

Compared with B15, B16 is lower in “DR/DR AA” value: 1.42 for the first, 0.67 for the second.

Compared with B17, B18 is lower in “DR/DR AA” value: 0.66 for the first, 0.20 for the second.

Compared with B19, B20 is lower in “DR/DR AA” value: 0.29 for the first, 0.18 for the second.

For B21, the “DR/DR AA” value was 0.24.

Same assay, conditions: arachidonic acid; response relative to ADIFAB2

Going from B1 to B22, the “DR/DR AA” value falls from 1.485 to 0.48.

In the case of B17, the “DR/DR AA” value is reported as 0.658.

In the case of B23, the “DR/DR AA” value is reported as 0.72 and 0.718.

Test: Probe fluorescence ratio response to linolenic acid relative to ADIFAB2
Type: binding
Settings: response relative to ADIFAB2
Outline: as §1

In the case of B1, the “DR/DR LNA” value is reported as 1.58 and 1.576.
With B23 the “DR/DR LNA” value was 0.73 and 0.732.

Going from B2 to B22, the “DR/DR LNA” value rises from 0.25 to 0.67.

Going from B3 to B4, the “DR/DR LNA” value rises from 0.19 to 1.44.

First: B5
Second: B6
The “DR/DR LNA” value of the first is higher: 0.92 for the first, 0.35 for the second.

Compared with B7, B8 is higher in “DR/DR LNA” value: 1.23 for the first, 1.40 for the second.

First: B9
Second: B10
The “DR/DR LNA” value of the first is higher: 1.52 for the first, 1.38 for the second.

Going from B11 to B12, the “DR/DR LNA” value falls from 0.96 to 0.38.

First: B13
Second: B14
The “DR/DR LNA” value of the first is higher: 0.41 for the first, 0.36 for the second.

First: B15
Second: B16
The “DR/DR LNA” value of the first is higher: 1.44 for the first, 0.60 for the second.

Going from B17 to B18, the “DR/DR LNA” value falls from 0.52 to 0.14.

Going from B19 to B20, the “DR/DR LNA” value falls from 0.22 to 0.12.

In the case of B21, the “DR/DR LNA” value is reported as 0.18.

Test: Probe fluorescence ratio response to palmitic acid relative to ADIFAB2
Type: binding
Settings: response relative to ADIFAB2
Outline: as §1

For B1, the “DR/DR PA” value was 1.39 and 1.385.
For B23, the “DR/DR PA” value was 0.39 and 0.387.
In the case of B17, the “DR/DR PA” value is reported as 0.52 and 0.524.

Compared with B2, B22 is higher in “DR/DR PA” value: 0.13 for the first, 0.34 for the second.

First: B3
Second: B4
The “DR/DR PA” value of the first is lower: 0.13 for the first, 1.26 for the second.

First: B5
Second: B6
The “DR/DR PA” value of the first is higher: 0.53 for the first, 0.33 for the second.

Compared with B7, B8 is higher in “DR/DR PA” value: 0.52 for the first, 1.29 for the second.

Going from B9 to B10, the “DR/DR PA” value falls from 1.40 to 1.27.

First: B11
Second: B12
The “DR/DR PA” value of the first is higher: 0.65 for the first, 0.28 for the second.

B13 and B14 are the same in “DR/DR PA” value: 0.35 for the first, 0.35 for the second.

Going from B15 to B16, the “DR/DR PA” value falls from 1.24 to 0.35.

Compared with B18, B19 is higher in “DR/DR PA” value: 0.10 for the first, 0.19 for the second.

Going from B20 to B21, the “DR/DR PA” value rises from 0.10 to 0.12.

Test: Probe fluorescence ratio response to linoleic acid relative to ADIFAB2
Type: binding
Settings: response relative to ADIFAB2
Outline: as §1

In the case of B1, the “DR/DR LA” value is reported as 1.60 and 1.598.
With B23 the “DR/DR LA” value was 0.82 and 0.818.

Compared with B2, B22 is higher in “DR/DR LA” value: 0.12 for the first, 0.71 for the second.

First: B3
Second: B4
The “DR/DR LA” value of the first is lower: 0.18 for the first, 1.44 for the second.

Compared with B5, B6 is lower in “DR/DR LA” value: 0.96 for the first, 0.34 for the second.

Going from B7 to B8, the “DR/DR LA” value rises from 1.23 to 1.34.

First: B9
Second: B10
The “DR/DR LA” value of the first is higher: 1.49 for the first, 1.36 for the second.

Compared with B11, B12 is lower in “DR/DR LA” value: 1.02 for the first, 0.43 for the second.

Going from B13 to B14, the “DR/DR LA” value rises from 0.36 to 0.37.

Compared with B15, B16 is lower in “DR/DR LA” value: 1.40 for the first, 0.67 for the second.

First: B17
Second: B18
The “DR/DR LA” value of the first is higher: 0.53 for the first, 0.14 for the second.

Going from B19 to B20, the “DR/DR LA” value falls from 0.23 to 0.11.

For B21, the “DR/DR LA” value was 0.17.

Test: Probe fluorescence ratio response to oleic acid relative to ADIFAB2
Type: binding
Settings: response relative to ADIFAB2
Outline: as §1

In the case of B1, the “DR/DR OA” value is reported as 1.57 and 1.574.
In the case of B17, the “DR/DR OA” value is reported as 0.55 and 0.547.

Going from B2 to B22, the “DR/DR OA” value rises from 0.29 to 0.64.

First: B3
Second: B4
The “DR/DR OA” value of the first is lower: 0.19 for the first, 1.46 for the second.

First: B23
Second: B5
The “DR/DR OA” value of the first is lower: 0.86 for the first, 0.91 for the second.

Compared with B6, B7 is higher in “DR/DR OA” value: 0.35 for the first, 1.13 for the second.

Compared with B8, B9 is higher in “DR/DR OA” value: 1.37 for the first, 1.52 for the second.

First: B10
Second: B11
The “DR/DR OA” value of the first is higher: 1.37 for the first, 1.00 for the second.

Going from B12 to B13, the “DR/DR OA” value rises from 0.45 to 0.46.

Compared with B14, B15 is higher in “DR/DR OA” value: 0.39 for the first, 1.40 for the second.

First: B16
Second: B18
The “DR/DR OA” value of the first is higher: 0.63 for the first, 0.14 for the second.

Going from B19 to B20, the “DR/DR OA” value falls from 0.25 to 0.13.

In the case of B21, the “DR/DR OA” value is reported as 0.21.
